Measured values taken from article PMC12139977.

How the values were obtained:
[1] = biological target: Syntaxin-1A (rat (endogenous in INS1 (832/13))) (UniProt P32851); assay: proximity ligation
[2] = biological target: Syntaxin-1A (rat (endogenous in INS1 (832/13))) (UniProt P32851); assay: co-IP

UniProt P32851, sequence (P32851 whole entry): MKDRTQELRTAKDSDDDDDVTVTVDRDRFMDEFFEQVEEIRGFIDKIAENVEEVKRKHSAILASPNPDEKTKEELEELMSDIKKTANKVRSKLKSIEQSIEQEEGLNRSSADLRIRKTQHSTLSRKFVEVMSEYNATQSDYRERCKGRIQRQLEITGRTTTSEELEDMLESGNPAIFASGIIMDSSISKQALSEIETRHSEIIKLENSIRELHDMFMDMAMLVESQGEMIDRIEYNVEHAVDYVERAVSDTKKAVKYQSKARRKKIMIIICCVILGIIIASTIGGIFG

Substance | fold increase of PLA signal over the control [1] [fold] | fold increase of Tomosyn-2 bound to Stx1A against control cells [2] [fold]
Tomosyn-2 (natural protein) | 8 | 
stabilized V5-tagged Tomosyn-2 (natural protein) |  | 3
